Results: article PMC4625211, “Putative Breast Cancer Driver Mutations in TBX3 Cause Impaired Transcriptional Repression”

Molecular target: T1, GST-TBX3(1-342) TBX3dm (human, UniProt O15119 1-342, G129A;R130S)
T1 sequence: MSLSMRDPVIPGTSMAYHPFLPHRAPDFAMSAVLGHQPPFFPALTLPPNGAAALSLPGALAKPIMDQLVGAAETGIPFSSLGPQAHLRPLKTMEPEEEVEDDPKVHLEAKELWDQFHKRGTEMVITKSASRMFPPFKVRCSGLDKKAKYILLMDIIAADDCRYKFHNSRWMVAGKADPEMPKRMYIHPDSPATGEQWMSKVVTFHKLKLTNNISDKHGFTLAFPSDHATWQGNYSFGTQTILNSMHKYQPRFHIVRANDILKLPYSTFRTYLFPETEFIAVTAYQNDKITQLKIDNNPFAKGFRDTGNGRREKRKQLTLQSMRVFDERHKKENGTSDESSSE
Assay: EMSA; 20 mM HEPES (pH not given), 100 mM KCl, 1 mM DTT, 0.25 mM EDTA, 0.01% NP-40, 1 mM MgCl2, 8% glycerol, 100 ug/ml BSA, 1 mg/ml poly(dI-dC), 15 C, 1 h; 6% gel, 1x
Settings: protein: recombinant; tags: N-terminal GST (pGEX-2TK); label: 5' digoxigenin; blunt; self-complementary palindrome

B1: palindromic Brachyury/T-box consensus oligonucleotide (24 bp) (dsDNA)
DNA 1: AATTTCACACCTAGGTGTGAAATT
DNA 2: AATTTCACACCTAGGTGTGAAATT
B1: no binding.
